Laboratory results: patent US20240059785A1 (QILU PUGET SOUND BIOTHERAPEUTICS, published 2024)
Residue numbers refer to the chain shown, from its start. In names and notes the source's numbering stands.

Tests used:
[1] = biological target: T1, human CD20 (Homo sapiens CD20) (Homo sapiens, UniProt P11836 1-297); experiment: FACS on Raji cells, crude transfection supernatant
T1 construct: Multi-pass cell surface antigen; present on Raji, Ramos, WSU-DLCL2 cells, human CD19+ B cells, or on stably transfected CHO cells (CD20/CHO); also called hCD20
T1 sequence: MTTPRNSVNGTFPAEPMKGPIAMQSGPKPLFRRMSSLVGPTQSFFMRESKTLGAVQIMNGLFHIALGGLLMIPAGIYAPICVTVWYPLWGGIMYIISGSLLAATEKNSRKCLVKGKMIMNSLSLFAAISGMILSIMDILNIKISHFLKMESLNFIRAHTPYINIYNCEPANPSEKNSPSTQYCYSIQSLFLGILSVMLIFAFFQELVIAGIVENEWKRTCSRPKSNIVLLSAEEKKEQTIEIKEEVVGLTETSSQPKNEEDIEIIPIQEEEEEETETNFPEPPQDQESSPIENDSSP

[2] = biological target: T1, human CD20 (Homo sapiens CD20); experiment: FACS on WSU-DLCL2, Raji and Ramos cells, 10 µg/mL
[3] = biological target: T2, human CD37 (Homo sapiens CD37) (Homo sapiens, UniProt P11049 1-281); experiment: FACS on WSU-DLCL2, Raji and Ramos cells, 10 µg/mL
T2 construct: Multi-pass cell surface antigen; present on Raji, Ramos, WSU-DLCL2 cells, human B cells, or on stably transfected CHO cells (CD37/CHO); also called hCD37
T2 sequence: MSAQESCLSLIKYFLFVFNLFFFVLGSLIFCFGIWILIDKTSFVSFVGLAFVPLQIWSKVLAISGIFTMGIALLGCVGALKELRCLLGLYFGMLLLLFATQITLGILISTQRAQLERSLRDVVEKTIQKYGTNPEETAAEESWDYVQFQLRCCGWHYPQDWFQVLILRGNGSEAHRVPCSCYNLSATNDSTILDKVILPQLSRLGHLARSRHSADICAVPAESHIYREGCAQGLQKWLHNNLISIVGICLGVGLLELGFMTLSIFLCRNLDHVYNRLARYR

[4] = biological target: T3, cynomolgus monkey CD37 (Macaca fasicularis CD37) (cynomolgus monkey (Macaca fasicularis …, UniProt P11049 1-281 (human entry))); experiment: FACS on CD20+ gated cynomolgus monkey PBMCs
T3 construct: On CD20+ or CD19+ B cells in cynomolgus monkey PBMCs; also called cynoCD37
T3 chain: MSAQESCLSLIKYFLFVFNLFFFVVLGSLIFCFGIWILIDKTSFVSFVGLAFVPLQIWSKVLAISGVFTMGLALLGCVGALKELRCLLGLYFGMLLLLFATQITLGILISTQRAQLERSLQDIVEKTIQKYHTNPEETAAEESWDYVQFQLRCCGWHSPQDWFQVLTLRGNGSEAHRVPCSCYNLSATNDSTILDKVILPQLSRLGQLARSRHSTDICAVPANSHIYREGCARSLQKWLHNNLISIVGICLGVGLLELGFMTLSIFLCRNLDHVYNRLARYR

[5] = biological target: T3, cynomolgus monkey CD37 (Macaca …); experiment: FACS on CD20+ gated cynomolgus monkey PBMCs, compared with anti-hCD37 Ab1
[6] = biological target: T3, cynomolgus monkey CD37 (Macaca …); experiment: FACS, ratio of EC50 on cynomolgus monkey B cells to EC50 on human B cells
[7] = biological target: T3, cynomolgus monkey CD37 (Macaca …); experiment: FACS, APC-labelled antibody on CD19+ B cells of cynomolgus monkey PBMCs
[8] = biological target: T2, human CD37 (Homo sapiens CD37); experiment: FACS, APC-labelled antibody on CD19+ B cells of human PBMCs
[9] = biological target: T1, human CD20 (Homo sapiens CD20); experiment: FACS on CHO cells stably expressing hCD20 (CD20/CHO)
[10] = biological target: T2, human CD37 (Homo sapiens CD37); experiment: FACS on CHO cells stably expressing hCD37 (CD37/CHO), EC50 of Geo MFI
[11] = biological target: T1, human CD20 (Homo sapiens CD20); experiment: FACS on Raji cells, titration
[12] = biological target: T2, human CD37 (Homo sapiens CD37); experiment: FACS on CHO cells stably expressing hCD37 (CD37/CHO)
[13] = biological target: T1, human CD20 (Homo sapiens CD20); experiment: FACS on CHO cells stably expressing hCD20 (CD20/CHO), EC50 of Geo MFI

B1: anti-hCD20 Ab1-T6 (antibody, human IgG1, kappa, name in Kabat numbering, V domains shown)
VH: QVQLVQSGAEVKKPGSSVKVSCKASGYTFTSYNMHWVRQAPGQGLEWMGRIYPGNGDTSYNQKFQGRVTLTVDKSSSTAYMELSSLRSEDTAVYFCARVVYYSNSYWYFDVWGTGTMVTVSS
VL: EIVLTQSPDFQSVTPKEKVTITCRASSSVSYMHWYQQKPDQSPKPLIYAPSNLASGVPSRFSGSGSGTDYTLTINSLEAEDAATYYCQQWSFNPPTFGAGTKLEIKR
notes: IgG1; also called variant #3
[1]
  binding result: binds

B2: anti-hCD20 Ab1-T7 (antibody, human IgG1, kappa, name in Kabat numbering, V domains shown)
VH: B1 VH with R50A, N55E
VL: B1 VL
notes: IgG1; also called variant #7
[2]
  binding result: binds

B3: anti-hCD20 Ab1-T8 (antibody, human IgG1, kappa, name in Kabat numbering, V domains shown)
VH: B1 VH with R50A, S59D
VL: B1 VL
notes: IgG1; also called variant #8
[1]
  binding result: binds

B4: anti-hCD37 Ab1 (antibody, human IgG1, kappa, V domains shown)
VH: QVQLVQSGAEVKKPGASVKVSCKASGYTFTGYNMNWVRQNNGQRLEWMGNIDPYYGGTTYNRKFKGRVTITVDTSASTAYMELKSLRSEDTAVYYCARSVGPMDYWGQGTLVTVSS
VL: DIQMTQSPSSLSASVGDRVTITCRTSENVYSYLAWYQQKPGKAPKLLIYFAKTLAEGVPSRFSGSGSGTQFTLTISSLQPEDSASYYCQHHSDNPWTFGGGTELEIKR
notes: Humanized IgG1/kappa derived from G28.1; also called aCD37 Ab1
[3]
  binding result: binds

B5: anti-hCD37 Ab1.N12 (antibody, human IgG1, kappa, V domains shown)
VH: B4 VH with M34L, K65Q
VL: B4 VL with T53S, D93E
notes: anti-hCD37 Ab1 with VH M34L + K64Q and VL T53S + D93E; also called anti-CD37 Ab1.N12
[4]
  binding result: binds

B6: anti-hCD37 Ab1.N18 (antibody, human IgG1, kappa, name in Kabat numbering, V domains shown)
VH: B4 VH with M34L, K65Q
VL: B4 VL with S31N, L54I, D93E
notes: IgG1 variant of anti-hCD37 Ab1
[5]
  binding result: binds

B7: anti-hCD37 Ab1.N19 (antibody, human IgG1, kappa, name in Kabat numbering, V domains shown)
VH: B4 VH with M34L, K65Q, M103L
VL: B4 VL with S31N, T53S, S92G
notes: as for B6
[4]
  binding result: binds

B8: anti-hCD37 Ab1.A1 (antibody, human IgG1, kappa)
heavy: not shown
light: DIQMTQSPSSLSASVGDRVTITCRTSENVYNYLAWYQQKPGKAPKLLIYFAKTLAEGVPSRFSGSGSGTQFTLTISSLQPEDSASYYCQHHSDNPWTFGGGTELEIKRTVAAPSVFIFPPSDEQLKSGTASVVCLLNNFYPREAKVQWKVDNALQSGNSQESVTEQDSKDSTYSLSSTLTLSKADYEKHKVYACEVTHQGLSSPVTKSFNRGEC
notes: anti-hCD37 Ab1 with VH-M34V + VL-S31N; also called anti-CD37 Ab1.A1
[6]
  fold less potent than its binding of human B cells: 62.7 fold
[7]
  EC50: 254 nM
[8]
  EC50: 4.05 nM

B9: anti-hCD37 Ab1.A1.1 (antibody)
heavy: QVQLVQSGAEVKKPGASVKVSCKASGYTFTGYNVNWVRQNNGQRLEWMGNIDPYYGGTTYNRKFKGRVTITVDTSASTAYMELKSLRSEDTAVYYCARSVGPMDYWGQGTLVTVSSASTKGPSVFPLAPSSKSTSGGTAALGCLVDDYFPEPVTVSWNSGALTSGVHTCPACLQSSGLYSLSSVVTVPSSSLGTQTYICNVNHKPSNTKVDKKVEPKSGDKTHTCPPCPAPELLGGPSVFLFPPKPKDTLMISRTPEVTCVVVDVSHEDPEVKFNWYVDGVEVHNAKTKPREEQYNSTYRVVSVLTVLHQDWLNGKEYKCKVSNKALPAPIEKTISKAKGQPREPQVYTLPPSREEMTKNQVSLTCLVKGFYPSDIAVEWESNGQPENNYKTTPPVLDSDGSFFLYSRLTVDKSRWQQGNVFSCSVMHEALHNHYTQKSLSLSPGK
light: B8 light with S131K, Q160C, S162C, C214S
notes: Ab1.A1 with HC K147D, F170C, V173C, C220G, K409R and LC S131K, Q160C, S162C, C214S; also called α-CD37 Ab1.A1.1
[9]
  binding result: no binding (tested: about 0.0002 nM to about 30 nM)
[10]
  EC50: 1.33 nM

B10: rituximab (antibody, V domains shown)
VH: QVQLQQPGAELVKPGASVKMSCKASGYTFTSYNMHWVKQTPGRGLEWIGAIYPGNGDTSYNQKFKGKATLTADKSSSTAYMQLSSLTSEDSAVYYCARSTYYGGDWYFNVWGAGTTVTVSA
VL: QIVLSQSPAILSASPGEKVTMTCRASSSVSYIHWFQQKPGSSPKPWIYATSNLASGVPVRFSGSGSGTSYSLTISRVEAEDAATYYCQQWTSNPPTFGGGTKLEIK
[11]
  EC50: 18.2 nM

B11: anti-hCD20 Ab1.2.2 (antibody, human IgG4 S228P, kappa)
heavy: QVQLVQSGAEVKKPGSSVKVSCKASGYTFTSYNMHWVRQAPGQGLEWMGAIYPGNGDTSYNQKFQGRVTLTVDKSSSTAYMELSSLRSEDTAVYFCARVVYYSNSYWYFDVWGTGTMVTVSSASTKGPSVFPLAPCSRSTSESTAALGCLVKDYFPEPVTVSWNSGALTSGVHTFPAVLQSSGLYSLSSVVTVPSSSLGTKTYTCNVDHKPSNTKVDKRVESKYGPPCPPCPAPELLGGPDVFLFPPKPKDTLMISRTPEVTCVVVDVSHEDPEVKFNWYVDGVEVHNAKTKPREEQYNATYRVVSVLTVLHQDWLNGKEYKCKVSNKALPAPIEKTISKAKGQPREPQVYTLPPSREMTKNQVSLTCLVKGFYPSDIAVEWESNGQPENNYKTTPPVLDSDGSFFLYSKLTVDKSRWQQGNVFSCSVMHEALHNHYTQKSLSLSPGK
light: EIVLTQSPDFQSVTPKEKVTITCRASSSVSYMHWYQQKPDQSPKPLIYAPSNLASGVPSRFSGSGSGTDYTLTINSLEAEDAATYYCQQWSFNPPTFGAGTKLEIKRTVAAPSVFIFPPSDEQLKSGTASVVCLLNNFYPREAKVQWKVDNALQSGNSQESVTEQDSKDSTYSLSSTLTLSKADYEKHKVYACEVTHQGLSSPVTKSFNRGEC
notes: Ab1.2 with S239D, S298A
[11]
  EC50: 26.3 nM

B12: anti-hCD20 Ab1.2.2.1 (antibody, human IgG4 S228P, kappa)
heavy: QVQLVQSGAEVKKPGSSVKVSCKASGYTFTSYNMHWVRQAPGQGLEWMGAIYPGNGDTSYNQKFQGRVTLTVDKSSSTAYMELSSLRSEDTAVYFCARVVYYSNSYWYFDVWGTGTMVTVSSASTKGPSVFPLAPCSRSTSESTAALGCLVKDYFPEPVTVSWNSGALTSGVHTFPAVLQSSGLYSLSSVVTVPSSSLGTKTYTCNVDHKPSNTKVDKRVESKYGPPCPPCPAPELLGGPDVFLFPPKPKDTLMISRTPEVTCVVVDVSHEDPEVKFNWYVDGVEVHNAKTKPREEQYNATYRVVSVLTVLHQDWLNGKEYKCKVSNKALPAPIEKTISKAKGQPREPQVYTLPPSREEMTKNQVSLTCLVKGFYPSDIAVEWESNGQPENNYKTTPPVLRSDGSFFLYSELTVDKSRWQQGNVFSCSVMHEALHNHYTQKSLSLSPGK
light: B11 light
notes: Ab1.2.2 with D399R and K409E in the CH3; also called α-CD20 Ab1.2.2.1
[12]
  binding result: no binding (tested: about 0.0002 nM to about 30 nM)
[13]
  EC50: 5.02 nM
